Protein stability index data for 36 sequences are collected here from the supplement of paper PMC10567573.

± gives the standard deviation.

A short description of this data set: protein stability index of a GFP-peptide fusion (GPS, HEK-293T) (PSI 1-6); higher = more stable. Conditions: c terminus: a fixed tail appended.
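Further: 24-mer peptide tiles fused after GFP, lentivirally expressed, FACS-sorted into six equal bins by GFP/DsRed ratio, decoded by Illumina sequencing, PSI is the read-weighted mean bin number.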

Regarding KVRSYVKRALAEGAQIWCGEGVDK [ALDH8A1], the protein stability index reads like this: (treatment: DMSO) 2.77 ± 0.098; (treatment: MLN4924 1 uM, 8 h) 2.78 ± 0.29.
For KYQANITETQRLGLAMALEPNTTF [FANCE] the same measures were 3.36 ± 0.17 and 3.4 ± 0.15.
With LAAALAQHSVPLQLELRAGAERLD [TRADD], the protein stability index by setting is: (treatment: DMSO) 2.97 ± 0.36; (treatment: MLN4924 1 uM, 8 h) 2.94 ± 0.12.
As to LAALCLAGPPAPARACQLPSEWRP [CCDC3], the protein stability index was 2.96 ± 0.2 (treatment: DMSO) and 2.92 ± 0.058 (treatment: MLN4924 1 uM, 8 h).
For the sequence LAEVAPVVTTEHILVSVAAGVSLS [PYCR3], the protein stability index reads like this: (treatment: DMSO) 2.22 ± 0.27; (treatment: MLN4924 1 uM, 8 h) 2.44 ± 0.21.
As for LAHLAPLFDNPKLDKELRAMLREK [INTS3], the protein stability index amounted to 2.6 ± 0.41 (treatment: DMSO) and 2.65 ± 0.5 (treatment: MLN4924 1 uM, 8 h).
On to LARADLEMQIENLKEELAYLKKNH [KRT17], for which the protein stability index is, setting by setting: (treatment: DMSO) 3.12 ± 0.35; (treatment: MLN4924 1 uM, 8 h) 3.21 ± 0.45.
LAVSNMGARSKGQCPEPPIVVHCS [PTPN9] gave a protein stability index (treatment: DMSO) of 3 ± 0.33 and a protein stability index (treatment: MLN4924 1 uM, 8 h) of 2.95 ± 0.28.
Regarding LDKKVEKVTISNRLVSSPCCIVTS [HSP90AB1], the protein stability index (treatment: DMSO) is 3.28 ± 0.34 and the protein stability index (treatment: MLN4924 1 uM, 8 h) came to 2.98 ± 0.27.
For LDNNASASGNATQTESGSEEVSST [C10orf62], the protein stability index runs as follows: (treatment: DMSO) 5.7 ± 0.2; (treatment: MLN4924 1 uM, 8 h) 5.64 ± 0.15.
Turning to LDSQTEIYQYVQNSMAPHPARDYV [DLC1], the protein stability index came out at 2.99 ± 0.42 (treatment: DMSO) and 3.09 ± 0.25 (treatment: MLN4924 1 uM, 8 h).
As for LEAEKLVMFQRRYYKPGLLMMCFI [SCD], the protein stability index is 3.26 ± 0.91 (treatment: DMSO) and 2.8 ± 0.44 (treatment: MLN4924 1 uM, 8 h).
Consider LEASVQDDAGTSGGPSSPPSDPPA [C2CD2L], for which the protein stability index is 5.53 ± 0.31 (treatment: DMSO) and 5.66 ± 0.12 (treatment: MLN4924 1 uM, 8 h).
As for LEDIYVMPEYRGQGIGSKIIKKVA [SAT2], the protein stability index is, setting by setting: (treatment: DMSO) 3.45 ± 0.37; (treatment: MLN4924 1 uM, 8 h) 3.79 ± 0.27.
For LEERRVKEVVKKHSQFIGYPITLY [HSP90AB1], the protein stability index (treatment: DMSO) came to 2.48 ± 0.068.
As to LELGHWLYQTELVENECYQVFLDR [TOR1AIP2], the protein stability index reads like this: (treatment: DMSO) 2.38 ± 0.038; (treatment: MLN4924 1 uM, 8 h) 2.26 ± 0.32.
As for LELKFVSSLRRQFEFSVDSFQIVL [TENT5D], the protein stability index amounted to 3.41 ± 0.5 (treatment: DMSO) and 2.91 ± 0.23 (treatment: MLN4924 1 uM, 8 h).
LENDTISKQLTLEQLRREKIDLEN [CCDC6] yielded a protein stability index (treatment: DMSO) of 4.96 ± 0.27 and a protein stability index (treatment: MLN4924 1 uM, 8 h) of 4.88 ± 0.23.
Turning to LEQFLSILPKELQGWVREHCPESG [ZSCAN9], the protein stability index (treatment: DMSO) was 2.5 ± 0.15 and the protein stability index (treatment: MLN4924 1 uM, 8 h) was 2.71 ± 0.29.
As to LERASATLQDLVFDECGITDDQLL [PRAME], the protein stability index worked out at 4.65 ± 0.36 (treatment: DMSO) and 4.71 ± 0.35 (treatment: MLN4924 1 uM, 8 h).
In the same order, the values of LERYVASLMPLQKSISPWKSPPQL [DENND6A] are 2.16 ± 0.28 and 2.21 ± 0.25.
For LESEGKNSKKEEPQELLQSQDFVG [ATE1] the same measures were 5.73 ± 0.27 and 5.54 ± 0.14.
With LFFTALMITVPIGLYFTTKSYIFE [VMA21], the protein stability index amounted to 2.73 ± 0.46 (treatment: DMSO) and 2.58 ± 0.055 (treatment: MLN4924 1 uM, 8 h).
For LFGGEFEDSVFEERPERRSGPPAS [C8orf76] the same measures were 4.75 ± 0.18 and 4.69 ± 0.2.
Take LFRELWRYHFATGVWHQMGTDGYM [KLHDC10]: the protein stability index is, setting by setting: (treatment: DMSO) 3 ± 0.66; (treatment: MLN4924 1 uM, 8 h) 2.8 ± 0.47.
LFRWPDLQHAVELKPLCGCHSFAA [SMAD6]: the protein stability index (treatment: DMSO) is 2.27 ± 0.26 and the protein stability index (treatment: MLN4924 1 uM, 8 h) came out at 2.13 ± 0.49.
In the case of LGDALAGPPRAPGRSGWPAGGAPG [HES6], the protein stability index by setting is: (treatment: DMSO) 3.88 ± 0.23; (treatment: MLN4924 1 uM, 8 h) 3.94 ± 0.44.
On to LGFAYAKEDKIMLDDRKNEEDGGA [MIA2], for which the protein stability index is, setting by setting: (treatment: DMSO) 4.96 ± 0.13; (treatment: MLN4924 1 uM, 8 h) 5.18 ± 0.2.
In the same order, the values of LGFGPTYVVLAYTLPPASRFIIIF [SOAT1] are 3.09 ± 0.14 and 3.03 ± 0.77.
Turning to LGFKANIMNEKCVVENAEKILGYL [SLC6A17], the protein stability index runs as follows: (treatment: DMSO) 2.43 ± 0.23; (treatment: MLN4924 1 uM, 8 h) 2.26 ± 0.14.
For LGSDDEEQEDPADYCKGGYHPVKI [SRPK2] the same measures were 4.81 ± 0.31 and 4.67 ± 0.31.
For the sequence LGTDPTHVMGLYPDLLPTDYRKQL [VPS39], the protein stability index runs as follows: (treatment: DMSO) 3.34 ± 0.36; (treatment: MLN4924 1 uM, 8 h) 3.42 ± 0.41.
Take LHAVADIHCENCKTTLGWKYEQAF [YPEL3]: the protein stability index (treatment: DMSO) was 2.38 ± 0.49 and the protein stability index (treatment: MLN4924 1 uM, 8 h) turned out to be 2.14 ± 0.46.
In the same order, the values of LHFIATNYLIFSQKPEFQDLSVEE [RHOBTB3] are 2.5 ± 0.77 and 2.15 ± 0.38.
Turning to LHRILHHKHVVQFYHYFEDKENIY [PLK2], the protein stability index was 2.58 ± 0.51 (treatment: DMSO) and 2.32 ± 0.38 (treatment: MLN4924 1 uM, 8 h).
Turning to LHSAIYAARPDVKCVVHIHTPAGA [ADD1], the protein stability index runs as follows: (treatment: DMSO) 2.24 ± 0.22; (treatment: MLN4924 1 uM, 8 h) 2.11 ± 0.28.
